Data published in publication PMC10750099, “Mapping immunological and host receptor binding determinants of SARS-CoV spike protein utilizing the Qubevirus platform” (The Journal of Biological Chemistry, 2023).

Molecular target: T1, recombinant human angiotensin-converting enzyme 2 (human, UniProt Q9BYF1 18-740)
T1 construct: also called rhACE2; hACE2
Assay: ELISA
Settings: both partners purified

T1 sequence (Q9BYF1 18-740): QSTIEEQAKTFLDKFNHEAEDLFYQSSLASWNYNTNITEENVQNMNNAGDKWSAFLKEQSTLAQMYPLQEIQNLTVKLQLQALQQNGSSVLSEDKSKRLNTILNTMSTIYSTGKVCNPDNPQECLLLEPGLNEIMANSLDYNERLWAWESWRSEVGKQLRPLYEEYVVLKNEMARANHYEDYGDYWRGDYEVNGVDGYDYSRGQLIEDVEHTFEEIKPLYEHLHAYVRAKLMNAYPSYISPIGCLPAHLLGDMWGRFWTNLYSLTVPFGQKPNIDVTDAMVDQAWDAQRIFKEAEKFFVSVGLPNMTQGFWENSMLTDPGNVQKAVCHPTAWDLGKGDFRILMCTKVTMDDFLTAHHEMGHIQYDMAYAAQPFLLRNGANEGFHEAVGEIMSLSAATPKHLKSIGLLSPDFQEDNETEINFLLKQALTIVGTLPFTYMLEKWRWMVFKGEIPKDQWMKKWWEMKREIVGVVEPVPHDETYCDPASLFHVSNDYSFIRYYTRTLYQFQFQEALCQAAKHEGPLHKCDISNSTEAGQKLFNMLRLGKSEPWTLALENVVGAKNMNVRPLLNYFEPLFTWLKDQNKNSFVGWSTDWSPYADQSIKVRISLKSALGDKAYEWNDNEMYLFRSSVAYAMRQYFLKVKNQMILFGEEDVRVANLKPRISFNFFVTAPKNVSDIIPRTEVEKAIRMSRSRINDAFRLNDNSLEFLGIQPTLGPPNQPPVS

B1: recombinant Qβ phage displaying the rhACE2-binding motif S437-492 of SARS-CoV spike fragment F6 on A1 (domain or fragment)
chain: NYKYRYLRHGKLRPFERDISNVPFSPDGKPCTPPALNCYWPLNDYGFYTTTGIGYQ
notes: also called GF6 motif (S437-492)
  binding result: binds
